Experimental data as given in patent US20070224194A1, “Methods for Inhibiting Angiogenesis and/or Lymphangiogenesis” (LUDWIG INSTITUTE FOR CANCER RESEARCH, priority 2004, published 2007).
Where two headings read alike, the source gives them in different places.

Assays:
VEGFR-3 [1] = molecular target: T1, VEGFR-3 (Homo sapiens, UniProt P35916); experiment: Biosensor analysis (surface plasmon resonance) of VEGF-D ligands on VEGFR-3; format: binding
Description: (§1) To determine the relative affinities of the ligands VEGF-DSSTS.IISS, VEGF-D-FULL-N-FLAG and mature VEGF-D (designated VEGF-DΔNΔC) for VEGFR-2 and VEGFR-3, the relative binding kinetics for these interactions was analyzed by biosensor analysis using surface plasmon resonance detection (Nice et al., Bioessays, 21:339-352, 1999). The preparations of VEGF-DSSTS.IISS and VEGF-DΔNΔC used for this analysis each consisted of one VEGF-D species devoid of other forms of VEGF-D but the preparation of VEGF-D-FULL-N-FLAG did contain traces of partially processed as well as full-length material, reflecting the capacity of wild-type full-length VEGF-D to be proteolytically processed in the 293EBNA cell cultures) from which these proteins were purified (see FIG. 10B). The binding constants for the interactions were obtained by analysis of the initial dissociation phase to obtain the kd, which was then used to constrain a global analysis of the association region of the curves, using regions of the curves where a 1:1 Langmurian model appeared to be operative.

VEGFR-3 [2] = molecular target: T1, VEGFR-3; conditions: cited from earlier work
VEGFR-2 [3] = molecular target: T2, VEGFR-2 (Homo sapiens, UniProt P35968); conditions: full-length form that could be processed, cited from earlier work
T2 sequence (P35968 20-1356): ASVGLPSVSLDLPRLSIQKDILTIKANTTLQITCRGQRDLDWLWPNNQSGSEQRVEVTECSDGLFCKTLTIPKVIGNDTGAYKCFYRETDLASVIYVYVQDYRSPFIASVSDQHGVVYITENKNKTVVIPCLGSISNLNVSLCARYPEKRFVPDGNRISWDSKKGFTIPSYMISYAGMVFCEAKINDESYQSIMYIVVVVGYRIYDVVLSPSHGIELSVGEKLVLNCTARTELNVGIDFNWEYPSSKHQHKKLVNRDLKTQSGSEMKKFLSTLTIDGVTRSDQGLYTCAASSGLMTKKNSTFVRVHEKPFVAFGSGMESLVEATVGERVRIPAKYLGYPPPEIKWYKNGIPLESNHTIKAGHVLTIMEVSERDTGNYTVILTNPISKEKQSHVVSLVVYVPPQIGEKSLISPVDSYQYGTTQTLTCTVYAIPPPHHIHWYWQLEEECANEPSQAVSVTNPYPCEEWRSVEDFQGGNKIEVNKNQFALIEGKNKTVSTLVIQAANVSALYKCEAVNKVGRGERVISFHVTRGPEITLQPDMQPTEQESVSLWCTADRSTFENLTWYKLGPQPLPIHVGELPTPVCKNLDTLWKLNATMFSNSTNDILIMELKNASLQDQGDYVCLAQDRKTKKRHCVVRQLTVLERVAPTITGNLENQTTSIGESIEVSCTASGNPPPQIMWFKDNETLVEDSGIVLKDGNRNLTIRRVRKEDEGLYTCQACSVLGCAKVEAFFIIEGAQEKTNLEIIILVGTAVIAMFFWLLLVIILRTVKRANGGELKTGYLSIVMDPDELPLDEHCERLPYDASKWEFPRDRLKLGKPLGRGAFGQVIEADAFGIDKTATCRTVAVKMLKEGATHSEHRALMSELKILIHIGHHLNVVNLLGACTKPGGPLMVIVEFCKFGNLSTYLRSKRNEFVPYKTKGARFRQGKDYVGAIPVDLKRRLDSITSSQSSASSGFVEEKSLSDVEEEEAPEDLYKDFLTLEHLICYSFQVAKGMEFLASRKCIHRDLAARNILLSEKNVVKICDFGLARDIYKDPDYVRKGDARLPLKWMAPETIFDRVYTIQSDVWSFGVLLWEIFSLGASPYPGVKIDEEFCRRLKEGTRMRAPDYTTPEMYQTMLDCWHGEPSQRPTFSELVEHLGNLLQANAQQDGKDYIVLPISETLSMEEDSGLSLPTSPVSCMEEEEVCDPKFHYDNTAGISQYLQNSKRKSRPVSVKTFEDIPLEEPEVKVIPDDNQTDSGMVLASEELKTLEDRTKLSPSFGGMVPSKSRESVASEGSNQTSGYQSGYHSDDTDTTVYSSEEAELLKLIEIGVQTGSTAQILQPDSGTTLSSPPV

VEGFR-2 [4] = molecular target: T2, VEGFR-2; experiment: Biosensor analysis (surface plasmon resonance) of VEGF-D ligands on VEGFR-2; format: binding; conditions: 1:1 Langmurian model
Description: as §1

T1 sequence (P35916 25-1363): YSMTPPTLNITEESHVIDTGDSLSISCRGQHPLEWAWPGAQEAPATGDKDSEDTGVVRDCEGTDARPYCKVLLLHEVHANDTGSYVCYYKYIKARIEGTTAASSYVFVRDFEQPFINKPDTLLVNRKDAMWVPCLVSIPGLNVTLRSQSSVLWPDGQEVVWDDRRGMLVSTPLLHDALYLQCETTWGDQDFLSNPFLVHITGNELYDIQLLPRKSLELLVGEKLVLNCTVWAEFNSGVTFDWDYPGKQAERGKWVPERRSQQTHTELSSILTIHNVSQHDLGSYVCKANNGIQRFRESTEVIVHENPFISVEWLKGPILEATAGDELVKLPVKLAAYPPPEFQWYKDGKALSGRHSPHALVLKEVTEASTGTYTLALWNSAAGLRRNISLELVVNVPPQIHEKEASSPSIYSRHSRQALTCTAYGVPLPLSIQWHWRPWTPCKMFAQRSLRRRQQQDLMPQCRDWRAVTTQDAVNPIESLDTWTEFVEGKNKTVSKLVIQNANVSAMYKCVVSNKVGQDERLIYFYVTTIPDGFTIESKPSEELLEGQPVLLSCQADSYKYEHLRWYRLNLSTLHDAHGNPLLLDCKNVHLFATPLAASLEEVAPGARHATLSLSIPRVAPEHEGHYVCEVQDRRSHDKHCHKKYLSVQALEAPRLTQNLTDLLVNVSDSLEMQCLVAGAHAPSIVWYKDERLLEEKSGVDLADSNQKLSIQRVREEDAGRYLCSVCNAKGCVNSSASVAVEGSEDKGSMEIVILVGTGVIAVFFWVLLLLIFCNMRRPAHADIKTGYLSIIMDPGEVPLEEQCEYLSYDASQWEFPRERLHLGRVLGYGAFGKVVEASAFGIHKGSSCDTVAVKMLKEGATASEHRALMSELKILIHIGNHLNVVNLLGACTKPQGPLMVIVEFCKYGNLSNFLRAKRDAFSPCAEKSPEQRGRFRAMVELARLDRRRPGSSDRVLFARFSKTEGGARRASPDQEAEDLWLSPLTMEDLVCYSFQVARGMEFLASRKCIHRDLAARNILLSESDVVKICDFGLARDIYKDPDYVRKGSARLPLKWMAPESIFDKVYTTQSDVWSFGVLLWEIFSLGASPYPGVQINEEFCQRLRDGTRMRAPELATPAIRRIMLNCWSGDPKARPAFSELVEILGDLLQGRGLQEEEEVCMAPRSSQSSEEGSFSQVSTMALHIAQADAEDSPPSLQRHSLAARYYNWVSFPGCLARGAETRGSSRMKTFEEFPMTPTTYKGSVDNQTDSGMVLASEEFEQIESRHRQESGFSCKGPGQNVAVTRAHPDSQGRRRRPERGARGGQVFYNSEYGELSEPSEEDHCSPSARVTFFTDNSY

affinity for VEGFR-3 relative to VEGF-DSSTS.IISS (VEGFR-3 [1]): ~18 fold | apparent affinity for VEGFR-2 relative to unprocessed mutant VEGF-DSSTS.IISS (VEGFR-2 [4]): ~17,000 fold
B1: mature VEGF-D: mature form of VEGF-D consisting of dimers of the VHD, lacking both propeptides (protein)
chain: FAATFYDIETLKVIDEEWQRTQCSPRETCVEVASELGKSTNTFFKPPCVNVFRCGGCCNEESLICMNTSTSYISKQLFEISVPLTSVPELVPVKVANHTGCKCLPTAPRHPYSIIRR
affinity for VEGFR-3 relative to unprocessed VEGF-D, previously reported (VEGFR-3 [2]): ~40 fold | affinity for VEGFR-2 relative to full-length (unprocessed) VEGF-D, previously reported (VEGFR-2 [3]): ~290 fold | affinity for VEGFR-2 relative to full-length (unprocessed) VEGF-D, previously reported (VEGFR-2 [3]; listed as mature form of VEGF-D): approximately 290 fold
